Legend:
healthy cells = test: Healthy cell viability, Calcein AM; format: cell-based; settings: 50 nM, 24 hrs
Experimental: Human PMN'S broadly and selectively kill cancer cells. Human peripheral blood neutrophils (PMN) were isolated from healthy donors and incubated in serum-free DMEM to collect their secreted factors (PMN-media). (A-B) Human or murine cancer cells (A) or healthy cells (b) were incubated with PMN media or control serum-free DMEM (Ctrl media) for 24 hours. Cell viability was assessed by Calcein AM staining. (C) Human or murine cancer cells were treated with PMN media or Ctrl media for 6 hours. Caspase 3/7 activity was examined by a luminescence activity assay, while cell surface Annexin V staining was assessed by flow cytometry. […] (FIG. 1).
(FIG. 6A) Cancer cells or healthy cells were treated with 50 nM purified native ELANE or control DMEM media (Ctrl) media for 24 hrs, and cell viability was assessed by Calcein AM staining. (FIG. 6B) Cancer cells were treated with 50 nM ELANE or Ctrl media for 6 hrs, and apoptosis was assessed by Caspase 3/7 luminesce activity assay or cell surface Annexin V staining by flow cytometry. *, p<0.05, Student's t-test.

Healthy non-cancer cells = test: Killing program signaling in non-cancer cells; format: cell-based, Human and mouse; settings: 50 nM
Experimental: (FIG. 11A) Healthy non-cancer cells were treated with ELANE (50 nM) for 4 hrs, and phosphorylated and total ERK, NFKB, and JNK were quantified by immunoblotting. Immunoblots for BMDMs are shown as an example. (FIG. 11B) Cells were treated with various doses of ELANE for 1 hr and mitochondrial ROS was measured by flow cytometry using CM-H2DCFDA dye. (FIG. 11C) Cells were treated with ELANE (50 nM) for 8 hrs, and full length and cleaved CASP3 (c-CASP3) and cleaved PARP (c-PARP) were quantified by immnoblotting. Immunoblots for BMDMs are shown as an example.
The ELANE-induced killing program is not observed in non-cancer cells. Human and mouse non-cancer cells were treated with ELANE and signaling pathways associated with cancer cell death were assessed. Cells were treated with ELANE (50 nM) for 4 hrs, and phosphorylated and total ERK, NFKB, and JNK were quantified by western blotting. Cells were treated with various doses of ELANE for 1 hr and mitochondrial ROS was measured by flow cytometry using CM-H2DCFDA dye. Cells were treated with ELANE (50 nM) for 8 hrs, and full length and cleaved CASP3 and PARP were quantified by western blotting.

Cancer cells = test: ELANE uptake and killing with endocytosis inhibitor Dynasore; format: cell-based; settings: ELANE 30 nM, Dynasore 80 μM, 6 hours
Experimental: (FIG. 9A) Cancer cells were treated with ELANE (100 nM) in the presence or absence of a broad endocytosis inhibitor Dynasore (80 μM) for 30 mins. ELANE catalytic activity in cell lysates was assessed by a chromogenic substrate assay. (FIG. 9B) Cancer cells were treated with ELANE (30 nM) in the presence or absence of Dynasore (80 μM) for 6 hours. Cell viability was examined by Calcein AM staining. *, p<0.05, Student's t-test.

E0771 cancer cells [1] = test: E0771 tumors in Rag2-/- versus wild type mice; format: in vivo, C57BL/6 mice; settings: 11.6 μg intratumorally once/day for 5 days
Experimental: The inventors therefore explored whether ELANE-mediated cancer cell killing could positively influence the immune cells in the tumor. Rag2^−/− mice in C57BL/6 background (no adaptive immunity) and wild type (wt) C57BL/6 mice were both ordered from the Jackson laboratory. E0771 cancer cells were injected into both mouse models. Once tumors reached ˜100 mm^3. ELANE (11.6 μg) or HAS (11.6 μg) were delivered intratumorally once/day for 5 days. Tumor volume was assessed by calipers. Kaplan-Meier curve was plotted and the logrank test (Mentel-Cox method) was used for mouse survival analysis. End point of survival is defined as tumor volume >1000 mm^3.
Adaptive immune cells contribute to ELANE's therapeutic efficacy. Rag2-deficient (Rag2−/−) mice on the C57BL/6 background (no adaptive immunity) and wild type (wt) C57BL/6 mice were injected with E0771 cancer cells. Once tumors reached ˜100 mm^3. ELANE (11.6 μg) or HSA (11.6 μg) were delivered intra-tumorally once/day for 5 days. (FIG. 18A) Tumor volume was assessed by calipers. (FIG. 18B) Kaplan-Meier curve was plotted and the logrank test (Mentel-Cox method) was used for survival analysis. End point of survival is defined as tumor volume >1000 mm^3.

E0771 cancer cells [2] = test: Abscopal effect, bilateral E0771 tumors; format: in vivo, C57BL/6 mice
Experimental: (FIG. 19A) E0771 cancer cells were injected into left (0.5 million cells) and right (0.4 million cells) mammary fat pad of C57BL/6 mice. Once tumors on the left side reached ˜100 mm^3, ELANE (11.6 μg) or PMSF-inactivated ELANE (PMSF-ELANE) were injected intra-tumorally into the left tumor once/day for 5 days. n=10 mice/group. No action was performed on the right side of the tumor (abscopal side). Tumor volume on both sides were measured by calipers. (FIG. 19B) To eliminate the possibility that the abscopal effect was due to spillover of ELANE from the left to the right tumor, E0771 cancer cells were injected only into the left mammary fat pad of C57BL/6 mice, and mice were treated daily with ELANE (11.6 μg) or PMSF-ELANE into the right mammary fat pad. Tumor volume was measured by calipers.

B1: neutrophil elastase (protein, listed as Homo sapiens)
chain: MTLGRRLACLFLACVLPALLLGGTALASEIVGGRRARPHAWPFMVSLQLRGGHFCGATLIAPNFVMSAAHCVANVNVRAVRVVLGAHNLSRREPTRQVFAVQRIFENGYDPVNLLNDIVILQLNGSATINANVQVAQLPAQGRRLGNGVQCLAMGWGLLGRNRGIASVLQELNVTVVTSLCRRSNVCTLVRGRQAGVCFGDSGSPLVCNGLIHGIASFVRGGCASGLYPDAFAPVAQFVNWIDSIIQRSEDNPCPHPRDPDPASRTH
notes: purified native ELANE
healthy cell viability (healthy cells): does not kill normal healthy cells
killing program in healthy non-cancer cells (Healthy non-cancer cells): does not induce a robust killing program in healthy non-cancer cells
dependence of killing on uptake (Cancer cells): internalization is required to kill cancer cells
efficacy in immune competent versus adaptive immunity deficient mice (E0771 cancer cells [1]): more efficacious than adaptive immunity deficient mice
tumor growth after injection into contralateral non-tumor bearing mammary fat pad (E0771 cancer cells [2]; 11.6 μg daily): does not lower tumor growth
abscopal effect (E0771 cancer cells [2]; 11.6 μg into left tumor once/day for 5 days): induces an abscopal effect

Source: patent US12564623B2, “Methods and compositions for treating cancer” (The University of Chicago, priority 2017, dated 2026)
